Where “and” joins values, the source holds several entries; their conditions need not be identical. Equal values may be shown once.

The record followed here is patent US9598481B2 (priority 2012, dated 2017).

For assay [1], the system named is H5N1 A/Vietnam/1203/04 influenza A virus. The format is in vivo, ferrets (Mustela putorius furo).
Assay [2] concerns Group2 influenza A virus strains. Type of assay: cell-based.
Assay [3] has as its system Group1 influenza A virus strains. Type of assay: cell-based.
Assay [4] concerns hemagglutinin H1 from A/NWS/1933. The format is binding, influenza A virus.
Assay [5] has as its system hemagglutinin H3 from A/HK/8/1968. The format is binding, influenza A virus.
Assay [6] relates to H3N2 A/Port Chalmers/1/1973. Type of assay: cell-based, influenza A virus. The conditions noted are these: read-out: in vitro IC50.
Assay [7] concerns H3N2 A/Aichi/2/1968. The format is cell-based, influenza A virus. The conditions noted are these: read-out: in vitro IC50.
Assay [8] concerns HIV pseudotype virus bearing hemagglutinin H5 from H5N1/Vietnam/1203/2004. The format is cell-based.
For assay [9], the system named is H3N2 A/Port Chalmers/1/1973. Details: species or system DBA/2J mice. The conditions noted are these: mouse, in vivo.
The subject of the next assay is H3N2 A/Hong Kong/1/1968. Further details: species or system DBA/2J mice. The conditions noted are these: mouse.
Assay [10] has as its system H3N2 A/Aichi/2/1968. Further details: species or system DBA/2J mice. The conditions noted are these: mouse, in vivo.
[11] abbreviates: read-out: EC50 competition with biotinylated mAb 39.29.

In the case of `CCOC(=O)C1=C[C@@H](OC(CC)CC)[C@H](NC(C)=O)[C@@H](N)C1` [oseltamivir, oseltamivir phosphate, reference compound], the mortality in assay [1] (twice-daily oral 25 mg/kg for 5 days, irrespective of treatment initiation time (48 or 72 hours)) is recorded as 50%.

B1: mAb 39.18 B11: anti-hemagglutinin monoclonal antibody; VL SEQ ID NO:156, VH SEQ ID NO:154 (antibody, V domains shown)
VH: EVQLVQSGAEVKKPGSSMKVSCKASGSIFSNYGISWVRQAPGQGLEWMGGIIPIFGAANYAQKFQGRVTITADESTSTVYMEVRSLRSEDTAVYYCARRQQLYKGYYHHWGQGTLVTVSS
VL: EIVLTQSPATLSVSPGERVTLSCRASQSVANNLAWYQQKPGQSPRLLIYGASTRDTGIPARFSGSGSGTEFTLTISSLQSEDFAVYYCQQYNNWPPMYTFGQGTKLEIK
For B1, in assay [2], the “in vitro neutralization of Group2 influenza A virus panel” value is “not able to neutralize Group2 influenza A virus strains”. Also, in assay [3], the “in vitro neutralization of Group1 influenza A virus panel” value was “effective at in vitro neutralization of the entire Group1 influenza A virus panel examined”.

B2: mAb23.06C2: phage-display derived anti-hemagglutinin monoclonal antibody; VL SEQ ID NO:170, VH SEQ ID NO:168 (antibody, V domains shown)
VH: QVQLQESGPGLVKPSETLSLTCTVSGGLIGTGSYYWGWIRQTPGKGMEWIGSISYSGSTYYHPSLKSRVTISDDTSKNQLFLKLRSVTAADTAQYYCARYNWGIRYFDFWGRGTLVTVSS
VL: DIQLTQSPLSPPVTLGQPASISCRSSQSLLYTDGFTYLSWYHQRPGQSPRRLIYKISNRDSGVPDRFSGSGSGTDFTLKISRVEAEDVGVYYCMQATHWPLTFGEGTKVEIK
As to B2, in assay [4], the “competition for binding of mAb 39.29 on Group1 H1 hemagglutinin stalk” value (from here on “competition … on Group1 H1 hemagglutinin stalk”) was “do not compete for binding”. For the same molecule, in assay [2], the “in vitro neutralization of Group2 influenza A virus panel” value is “able to neutralize the entire Group2 influenza A virus panel examined”. In assay [5], the “competition for binding with mAb 39.29 on Group2 H3 hemagglutinin stalk epitope” value is “compete for binding”. For the same molecule, in [3], the “in vitro neutralization of Group1 influenza A virus panel” value is recorded as “not able to neutralize any Group1 influenza A virus isolate tested”.

B3: mAb 39.29 NCv1: anti-hemagglutinin monoclonal antibody; VL SEQ ID NO:144, VH SEQ ID NO:142 (antibody, V domains shown)
VH: QVQLVESGGGVVQPGKSPRLSCAASGPTFSSYAVHWVRQAPGKGLEWVTLISYDGANQYYADSVKGRFTISRDNSKNTVYLQMNSLRPEDTAVYYCAVPGPVFGIFPPWSYFDNWGQGILVTVSS
VL: EIVLTQSPATLSVSPGERATLSCRASQVISHNLAWYQQKPGQAPRLLIYGASTRASGIPARFSGSGSGTDYTLTITSLQPEDFAVYYCQHYSNWPPRLTFGGGTKVEIK
Consider B3, for which the IC50 in [6] was 2.9 nM; with H3N2 A/Aichi/2/1968 [7] it was 35 nM. Moreover, the “in vitro neutralization of pseudotype virus expressing hemagglutinin H5” value in assay [8] is “dose-dependent in vitro neutralization”. For the same molecule, the “efficacy at all tested doses” value (in assay [9]; in the assay on H3N2 A/Aichi/2/1968 [10]) was “very efficacious” each time. The “mice protected (survival)” value with H3N2 A/Hong Kong/1/1968 (in vivo) was 87.5% and 75%. The “minimum efficacious dose in vivo” value in the assay with H3N2 A/Hong Kong/1/1968 (iv) is reported as 15 mg/kg.

B4: mAb9.01F3: phage-display derived anti-hemagglutinin monoclonal antibody; VL SEQ ID NO:166, VH SEQ ID NO:164 (antibody, V domains shown)
VH: QVQLVQSGAEVKQPGASVKVSCKASGYTFNAYYIHWVRQAPGQGLEWMGWINPNFGGTHYARKFQGRVTMTRDASINTAYMELDRLISDDTAVYYCVRWRAAAVIMDQFYKMDVWGQGTLVTVSS
VL: SSELTQPPSASGTPGQRVTISCSGSTSNIGYNPVSWYQQVPGTAPKLLIYSNTERPSGVPDRFSGSKSGTSASLAISGLQSEDEADYYCAAWDDTLNGPVFGGGTKVTVL
Consider B4, for which, in assay [4], the “competition … on Group1 H1 hemagglutinin stalk” value was “do not compete for binding”. Besides, the “in vitro neutralization of Group2 influenza A virus panel” value in [2] was “able to neutralize the entire Group2 influenza A virus panel examined”. The “competition for binding with mAb 39.29 on Group2 H3 hemagglutinin stalk epitope” value in [5] is “compete for binding”. Besides, the “in vitro neutralization of Group1 influenza A virus panel” value in assay [3] is given as “not able to neutralize any Group1 influenza A virus isolate tested”.

B5: mAb 81.39 SVSH-NYP: anti-hemagglutinin monoclonal antibody; VL SEQ ID NO:117, VH SEQ ID NO:115 (antibody, V domains shown)
VH: EVQLVESGGGVVQPGRSLRLSCAASGFAFHNRAMHWVRQAPGKGLEWVALIYFDGSKQYYADSVKGRFTISRDNSKNTVFLQMNSLRPEDTAVYYCAVPGPIFGIFPPWSYFDHWGQGILVTVSS
VL: EIVLTQSPATLSVSPGERATLSCRASQSVSHNLAWYQQKPGQAPRLLVYSASTRATGIPARFSGSGSGTEFTLAISSLQSEDFAVYYCQHYTNYPPRLTFGGGSKVEIK
Turning to B5, in assay [2], the “in vitro neutralization of Group2 influenza A virus panel” value is reported as “effective at the in vitro neutralization of all influenza A virus strains tested”. Moreover, in assay [3], the “in vitro neutralization of Group1 influenza A virus panel” value is listed as “effective at the in vitro neutralization of all influenza A virus strains tested”.

B6: mAb 81.39 B1C1: anti-hemagglutinin monoclonal antibody; VL SEQ ID NO:113, VH SEQ ID NO:111 (antibody, V domains shown)
VH: QVQLVESGGGVVQPGRSLRLSCAASGFAFHNRAMHWVRQAPGKGLEWVALIYFDGSKQYYADSVKGRFTISRDNSKNTVFLQMNSLRPEDTAVYYCAVPGPIFGIFPPWSYFDHWGQGILVTVSS
VL: EIVLTQSPATLSVSPGERATLSCRASQSVDSNLAWYQQKPGQAPRLLVYSASTRATGIPARFSGSGSGTEFTLAISSLQSEDFAVYYCQHYTNWPPRLTFGGGSKVEIK
As to B6, the survival in [1] (in vivo, iv, 25 mg/kg) is 100% and 80%.

B7: mAb 81.39: anti-hemagglutinin monoclonal antibody 81.39, variant not specified in the competition ELISA (antibody, V domains shown)
VH: EVQLVESGGGVVQPGRSLRLSCAASGFAFHNRAMHWVRQAPGKGLEWVALIYFDGSKQYYADSVKGRFTISRDNSKNTVFLQMNSLRPEDTAVYYCAVPGPIFGIFPPWSYFDHWGQGILVTVSS
VL: EIVLTQSPATLSVSPGERATLSCRASQSVSHNLAWYQQKPGQAPRLLVYSASTRATGIPARFSGSGSGTEFTLAISSLQSEDFAVYYCQHYTNWPPRLTFGGGSKVEIK
B7: the “competition … on Group1 H1 hemagglutinin stalk” value in assay [4] is given as “compete for binding”. The EC50 in assay [4] (setting [11]) amounted to 2.15 nM; in assay [5] (setting [11]), 4.21 nM. In addition, in assay [5], the “competition for binding with mAb 39.29 on Group2 H3 hemagglutinin stalk epitope” value is recorded as “compete for binding”.

B8: mAb 36.89: anti-hemagglutinin monoclonal antibody; VL SEQ ID NO:162, VH SEQ ID NO:160 (antibody, V domains shown)
VH: QVQLVQSGAELKRPGASVKVSCKTSGYSFNNYGINWVRQAPGQGLEWMGWISAYTGNTHYAKNFEGRVTLTTDTSTSTAYMEVRSLRSDDSAVYFCARAMIQGVVTLYLRPGDYWGQGTLVTVSS
VL: DIVMTQSPSTLSASVGDRVTITCRASQSIGNWLAWYQQKPGKAPKLLIYKVSTLESGVPSRFSGSGSGTEFTLTINSLQPDDFATYYCQRYTSNSQGFTFGQGTKLEIK
B8: the “competition … on Group1 H1 hemagglutinin stalk” value in [4] is “do not compete for binding”. Also, the “in vitro neutralization of Group2 influenza A virus panel” value in assay [2] was “able to neutralize the entire Group2 influenza A virus panel examined”. Further, the “competition for binding with mAb 39.29 on Group2 H3 hemagglutinin stalk epitope” value in assay [5] is listed as “compete for binding”. Also, the “in vitro neutralization of Group1 influenza A virus panel” value in assay [3] is “not able to neutralize any Group1 influenza A virus isolate tested”.

One may read the mortality as the share of the test organisms that died. Low values mean more survivors, high ones fewer survivors. Usually IC50 stands for the concentration at which inhibition is half-maximal. Usually EC50 stands for the concentration that produces a half-maximal response.
